From the supplement of paper PMC10724198
± gives the standard deviation of the averaged measurements.

The sequences below were run on Saccharomyces cerevisiae (assay: protein stability index of tFT-peptide fusion (C-terminal peptide) (PSI (0-1 scale)); higher = more stable (slower turnover)). Details: genetic background: wild type; temperature: 30 C.
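Note: PSI is a weighted mean of sequencing reads over stability bins, variants kept only with over 10 reads, mCherry proximal and sfGFP distal, peptide attached via GGGS linker.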

PPPVPPPWPSPF and PPPYRPPPSSPG are the same in protein stability index: 0.661 ± 0.047 for the first, 0.661 ± 0.04 for the second.

First: PPQLSRHVSTRP
Second: PPQPRSHPPHLS
The protein stability index of the first is higher: 0.754 ± 0.0084 for the first, 0.594 ± 0.086 for the second.

Going from PPQSPPPGSPPP to PPRASPFPTPPP, the protein stability index falls from 0.649 ± 0.013 to 0.579 ± 0.04.

First: PPRFCPPLAPSV
Second: PPRFLPFPPLPL
The protein stability index of the first is lower: 0.681 ± 0.0095 for the first, 0.75493 ± 0.00067 for the second.

PPRLVPPTPPSS and PPRPPAALPRLL are within error of each other in protein stability index: 0.65 ± 0.064 for the first, 0.714 ± 0.07 for the second.

PPRPPLSPPRSA and PPRPRVLPYPPL are within error of each other in protein stability index: 0.718 ± 0.014 for the first, 0.746 ± 0.028 for the second.

PPRQLPFLAPSP and PPRRPSPPSPHP are within error of each other in protein stability index: 0.709 ± 0.046 for the first, 0.67196 ± 0.00055 for the second.

First: PPRSPPSLPFPP
Second: PPRTHRPPTPPQ
The protein stability index of the first is lower: 0.634 ± 0.0066 for the first, 0.7212 ± 0.0063 for the second.

First: PPSLCPPPSLLF
Second: PPSLLLCPLFTS
The protein stability index of the first is higher: 0.733 ± 0.013 for the first, 0.602 ± 0.075 for the second.

PPSLPLLLPPCT and PPSLPPLFLRAP are within error of each other in protein stability index: 0.649 ± 0.019 for the first, 0.667 ± 0.0091 for the second.

PPSLPPLPFSTP and PPSLPPLSPPLA are within error of each other in protein stability index: 0.7352 ± 0.0065 for the first, 0.736 ± 0.02 for the second.

PPSNAFEETLRT and PPSPLPQPRPQT are within error of each other in protein stability index: 0.7 ± 0.015 for the first, 0.695 ± 0.014 for the second.

Compared with PPSPPPPPASPP, PPSPPPVRPHPP is lower in protein stability index: 0.6805 ± 0.0015 for the first, 0.587 ± 0.068 for the second.

PPSPPSPPPSAP and PPSPRLFRFLPP are within error of each other in protein stability index: 0.704 ± 0.0093 for the first, 0.631 ± 0.074 for the second.

PPSPSPPSPPPP and PPSPSPPSPPSP are within error of each other in protein stability index: 0.656 ± 0.007 for the first, 0.654 ± 0.032 for the second.

PPSQRPPPPPPL and PPSRPLSVLPPP are within error of each other in protein stability index: 0.704 ± 0.023 for the first, 0.6863 ± 0.0055 for the second.

PPSSPALPSDTP and PPSSPCLRPSPP are within error of each other in protein stability index: 0.694 ± 0.013 for the first, 0.683 ± 0.037 for the second.

Compared with PPSSPPPTIPAH, PPSSRPPVRSPP is higher in protein stability index: 0.642 ± 0.029 for the first, 0.6903 ± 0.0014 for the second.

PPSSSPPHTPFP and PPSTPPPSPPTP are within error of each other in protein stability index: 0.6557 ± 0.0011 for the first, 0.725 ± 0.072 for the second.

PPSTRPYRLFPL and PPSVPTPCPVPI are within error of each other in protein stability index: 0.682 ± 0.048 for the first, 0.696 ± 0.067 for the second.

PPSWTPPSPLPL and PPTFPPHSYLHP are within error of each other in protein stability index: 0.727 ± 0.06 for the first, 0.652 ± 0.043 for the second.

PPTLPFSARSPP and PPTLPVPSPSPL are within error of each other in protein stability index: 0.659 ± 0.036 for the first, 0.822 ± 0.25 for the second.

PPTPHPSTPALP and PPTPPPPSPLAP are within error of each other in protein stability index: 0.714 ± 0.075 for the first, 0.73 ± 0.034 for the second.

PPTSPPLAPPPL and PPTVSRPPHLPT are within error of each other in protein stability index: 0.643 ± 0.062 for the first, 0.69 ± 0.048 for the second.

First: PPVLQPLLALAL
Second: PPVLVPAHHRPD
The protein stability index of the first is lower: 0.535 ± 0.015 for the first, 0.651 ± 0.014 for the second.

PPVPDSFAAFLR and PPVPPPHASPAP are within error of each other in protein stability index: 0.743 ± 0.089 for the first, 0.709 ± 0.05 for the second.

PPVPPPLPSPPP and PPVRRPAHATTG are within error of each other in protein stability index: 0.712 ± 0.025 for the first, 0.722 ± 0.038 for the second.

PPVSHPSPFPLP and PPWPLVVQPSPP are within error of each other in protein stability index: 0.653 ± 0.0095 for the first, 0.703 ± 0.041 for the second.

PPYAPSPSPPSH and PPYPLHPARPPY are within error of each other in protein stability index: 0.6936 ± 0.0029 for the first, 0.702 ± 0.036 for the second.

PPYPPETPPVHP and PPYPPGLPSLPP are within error of each other in protein stability index: 0.724 ± 0.037 for the first, 0.689 ± 0.043 for the second.

PQGAYLFTSTCI and PQGGREYIYSPQ are within error of each other in protein stability index: 0.753 ± 0.054 for the first, 0.718 ± 0.019 for the second.

PQHFARSITPPP and PQPPFTHGLIPS are within error of each other in protein stability index: 0.64 ± 0.097 for the first, 0.706 ± 0.023 for the second.

PQPPLYPPPSLP and PQPPPRSPPSYL are within error of each other in protein stability index: 0.675 ± 0.036 for the first, 0.75 ± 0.049 for the second.

PQSKWQWHSGLT and PQSPVCDLESRL are within error of each other in protein stability index: 0.692 ± 0.065 for the first, 0.666 ± 0.11 for the second.

PRAHIDWALTVM and PRALLPPSPPSP are within error of each other in protein stability index: 0.548 ± 0.065 for the first, 0.635 ± 0.09 for the second.

PRAPQNEHQTKG and PRASSPPPPTAS are within error of each other in protein stability index: 0.667 ± 0.059 for the first, 0.666 ± 0.024 for the second.

PRCCDIEIESGR and PRDSLMRLDCRL are within error of each other in protein stability index: 0.68 ± 0.027 for the first, 0.691 ± 0.022 for the second.

Compared with PRDSPPPPPPPP, PREFLVYDGVRV is lower in protein stability index: 0.699 ± 0.027 for the first, 0.6382 ± 0.0059 for the second.

Compared with PRFPLPLPPPSP, PRHGSPASPRPP is lower in protein stability index: 0.7356 ± 0.0037 for the first, 0.636 ± 0.086 for the second.

Compared with PRHPLAPLPLPS, PRIGEARNLCYK is lower in protein stability index: 0.724 ± 0.026 for the first, 0.6816 ± 0.006 for the second.

First: PRIGPAPLPRLS
Second: PRKTRSTTTRKS
The protein stability index of the first is higher: 0.714 ± 0.043 for the first, 0.593 ± 0.038 for the second.

PRLHRRPAYTFI and PRLLPSTCEREV are within error of each other in protein stability index: 0.606 ± 0.022 for the first, 0.618 ± 0.066 for the second.

PRLLSTYAGSKW and PRLPLPSRPSPR are within error of each other in protein stability index: 0.723 ± 0.012 for the first, 0.655 ± 0.064 for the second.

Compared with PRLPSPPGAPPP, PRLSPLPPPSFP is lower in protein stability index: 0.726 ± 0.011 for the first, 0.628 ± 0.045 for the second.

PRNPLFSPPLPD and PRPGPPPPPPSP are within error of each other in protein stability index: 0.752 ± 0.0099 for the first, 0.713 ± 0.035 for the second.

Going from PRPLALPFCKLW to PRPLPAPPQRNL, the protein stability index falls from 0.808 ± 0.14 to 0.628 ± 0.017.

PRPPLPHQRPRS and PRPPRSPLPSSL are within error of each other in protein stability index: 0.746 ± 0.13 for the first, 0.7 ± 0.041 for the second.

PRPQTSAHAETG and PRPRPRSGWILL are within error of each other in protein stability index: 0.644 ± 0.022 for the first, 0.696 ± 0.036 for the second.

PRRFPPPSPSPP and PRRPAFPPPGLP are within error of each other in protein stability index: 0.713 ± 0.085 for the first, 0.705 ± 0.072 for the second.

PRRQDSRLEQPD and PRRYPPPSPRTS are within error of each other in protein stability index: 0.713 ± 0.0077 for the first, 0.704 ± 0.016 for the second.

PRSLSLLPPSSP and PRSPPPPAQPFV are within error of each other in protein stability index: 0.734 ± 0.037 for the first, 0.705 ± 0.042 for the second.

PRSSPPPPPPPP and PRSSSPPPRSPP are within error of each other in protein stability index: 0.681 ± 0.035 for the first, 0.669 ± 0.016 for the second.

PRTPPQQEPRRP and PRVLPFPSFLFF are within error of each other in protein stability index: 0.709 ± 0.054 for the first, 0.657 ± 0.022 for the second.

PRVPSSPNPPPI and PRWYVSFRTDDW are within error of each other in protein stability index: 0.805 ± 0.025 for the first, 0.709 ± 0.15 for the second.

Compared with PSALGYFRWAVG, PSAPRPSPPALP is higher in protein stability index: 0.68 ± 0.042 for the first, 0.855 ± 0.11 for the second.

Going from PSAPSLPPFFPP to PSDLFGIQQSLL, the protein stability index rises from 0.644 ± 0.04 to 0.764 ± 0.018.

First: PSEPGPPRVSTP
Second: PSFFLLRVFVPS
The protein stability index of the first is higher: 0.647 ± 0.08 for the first, 0.524 ± 0.0061 for the second.

PSFSPLPLPSIV and PSGAHLAHLLWL are within error of each other in protein stability index: 0.728 ± 0.039 for the first, 0.719 ± 0.053 for the second.

PSGGAVEGMGGE and PSGHQAPEMQYL are within error of each other in protein stability index: 0.668 ± 0.059 for the first, 0.667 ± 0.022 for the second.

First: PSGSNPPRTIPT
Second: PSKLNLSRKPEC
The protein stability index of the first is higher: 0.713 ± 0.017 for the first, 0.677 ± 0.018 for the second.

PSLFFLPPPPSP and PSLGLQAPTPCP are within error of each other in protein stability index: 0.695 ± 0.0096 for the first, 0.679 ± 0.012 for the second.

PSLIRTPTTPSP and PSLLSPTPPTTD are within error of each other in protein stability index: 0.69 ± 0.018 for the first, 0.711 ± 0.075 for the second.

Going from PSLPPPPPRAFS to PSLSPAPLPGLP, the protein stability index rises from 0.649 ± 0.0028 to 0.706 ± 0.042.

First: PSNLNASLASRV
Second: PSPALPVHPPLQ
The protein stability index of the first is lower: 0.655 ± 0.015 for the first, 0.687 ± 0.011 for the second.

Compared with PSPARLFVSPSP, PSPFPPPLPPHL is higher in protein stability index: 0.649 ± 0.04 for the first, 0.767 ± 0.064 for the second.

PSPLCDFTRSSI and PSPLLPAPRRPP are within error of each other in protein stability index: 0.659 ± 0.025 for the first, 0.684 ± 0.085 for the second.

PSPPASSPPLPL and PSPPLPLPLLSV are within error of each other in protein stability index: 0.665 ± 0.02 for the first, 0.633 ± 0.029 for the second.

PSPPPAIFPFVS and PSPPPHGLPRPA are within error of each other in protein stability index: 0.71 ± 0.059 for the first, 0.675 ± 0.06 for the second.

PSPPPLSPPTPR and PSPPPPGLFPLP are within error of each other in protein stability index: 0.667 ± 0.016 for the first, 0.632 ± 0.044 for the second.

PSPPPRRPPAPP and PSPPPSLLPTPP are within error of each other in protein stability index: 0.666 ± 0.017 for the first, 0.679 ± 0.063 for the second.

PSPPPTPPLICL and PSPPSHRFPAIP are the same in protein stability index: 0.697 ± 0.025 for the first, 0.697 ± 0.0081 for the second.

Compared with PSPRPPPPPPPP, PSPRSFLSIRFL is lower in protein stability index: 0.66 ± 0.025 for the first, 0.581 ± 0.013 for the second.

PSPTAPGPSIPP and PSRPAHSPPVPP are within error of each other in protein stability index: 0.667 ± 0.049 for the first, 0.646 ± 0.02 for the second.

PSRSATRPFPLS and PSRVPSSVPLAP are within error of each other in protein stability index: 0.707 ± 0.071 for the first, 0.6864 ± 0.0061 for the second.

Going from PSSPPDLAFRPP to PSSPPSLRLPPL, the protein stability index rises from 0.6157 ± 0.0049 to 0.701 ± 0.044.

PSSRPPPPPPPP and PSSRRRLLPPPH are within error of each other in protein stability index: 0.698 ± 0.037 for the first, 0.71 ± 0.12 for the second.

PSSWGRFLRRRP and PSVSPVRLPYLL are within error of each other in protein stability index: 0.7 ± 0.024 for the first, 0.687 ± 0.035 for the second.

PTAESFNVRKRD and PTAPLIPTGGAP are within error of each other in protein stability index: 0.723 ± 0.086 for the first, 0.685 ± 0.029 for the second.

First: PTCALPKLLTHP
Second: PTDAFFGLCMDC
The protein stability index of the first is higher: 0.796 ± 0.021 for the first, 0.68 ± 0.038 for the second.

Going from PTGQEFYRGGTR to PTGSHARRRPRR, the protein stability index falls from 0.6927 ± 0.0047 to 0.65 ± 0.023.
